The results in this text go back to patent US20230212549A1 (3B PHARMACEUTICALS, published 2023).

Experiment [1] deals with T1, fibroblast activation protein (FAP) on FAP-expressing human WI-38 fibroblasts (human, UniProt Q12884 1-760).
T1 construct: also called human FAP
Description: competitive FACS, WI-38 cells, vs Cy5 tracer m3; C = pIC50 6.1-7.0.

The target of experiment [2] is Recombinant human FAP (R&D systems, #3715-SE) (human, UniProt Q12884 26-760). In words: cell-based or functional assay.
Experiment [3] has as its target T1, fibroblast activation protein (FAP) on …. Description: competitive FACS, WI-38 cells, vs Cy5 tracer m3; B = pIC50 7.1-8.0.

Several values for one entry are separate records, joined by “and”; a condition that tells them apart may be missing. Equal values may be shown once. Numbered stars: 1 amine (or outer) side, 2 acyl side, 3 side chain; on linkers, the order of the positions; unused ones are H or OH. Bridge positions count the residues as written; N and C are the ends. Square brackets hold non-standard residues; d marks the D form. * marks the point of attachment. DOTA = O=C(O)CN1CCN(CC(=O)O)CCN(CC(=O)*)CCN(CC(=O)O)CC1; Pro(trans-4-F) = O=C(O)[C@@H]1C[C@@H](F)CN1; Phe(4-Cl) = N[C@@H](Cc1ccc(Cl)cc1)C(=O)O; Phe(2-Cl) = N[C@@H](Cc1ccccc1Cl)C(=O)O; 2Nal = N[C@@H](Cc1ccc2ccccc2c1)C(=O)O; mXylylene = c1cc(C[*:1])cc(C[*:2])c1; NMeF = CN[C@@H](Cc1ccccc1)C(=O)O; 4Amb = NCc1ccc(C(=O)O)cc1; Hexanoyl = CCCCCC(=O)*; Phb = not defined here; Aib = CC(C)(N)C(=O)O; βAla = NCCC(=O)O; Sar = CNCC(=O)O

B1: Hex-[Cys(3MeBn)-Gly-Pro-Thr-Glu-Phe-Cys]-NH2 (peptide)
peptide: Hexanoyl-CGPTEFC-NH2
modifications: linker 1-7 via mXylylene
SMILES: CCCCCC(=O)N[C@H]1CSCc2cccc(c2)CSC[C@@H](C(N)=O)NC(=O)[C@H](Cc2ccccc2)NC(=O)[C@H](CCC(=O)O)NC(=O)[C@H]([C@@H](C)O)NC(=O)[C@@H]2CCCN2C(=O)CNC1=O
notes: also called 3BP-3345
With B1, the “pIC50 Category (FACS)” value in experiment [1] was 6.1 pIC50 and 7 pIC50. In addition, the “pIC50 Category (Activity)” value in experiment [2] is 7.1 pIC50 and 8 pIC50.

B2: Hex-[Cys(3MeBn)-Pro-Pro-Thr-Glu-Phe-Cys]-NH2 (peptide)
peptide: Hexanoyl-CPPTEFC-NH2
modifications: linker 1-7 via mXylylene
SMILES: CCCCCC(=O)N[C@H]1CSCc2cccc(c2)CSC[C@@H](C(N)=O)NC(=O)[C@H](Cc2ccccc2)NC(=O)[C@H](CCC(=O)O)NC(=O)[C@H]([C@@H](C)O)NC(=O)[C@@H]2CCCN2C(=O)[C@@H]2CCCN2C1=O
notes: also called 3BP-3287
Turning to B2, the “pIC50 Category (FACS)” value in experiment [1] is 6.1 pIC50 and 7 pIC50. Moreover, the “pIC50 Category (Activity)” value in experiment [2] was 7.1 pIC50 and 8 pIC50.

B3: Hex-[Cys(3MeBn)-Pro-Pro-Thr-Glu-Ocf-Cys]-NH2 (peptide)
peptide: Hexanoyl-CPPTE[Phe(2-Cl)]C-NH2
modifications: linker 1-7 via mXylylene
SMILES: CCCCCC(=O)N[C@H]1CSCc2cccc(c2)CSC[C@@H](C(N)=O)NC(=O)[C@H](Cc2ccccc2Cl)NC(=O)[C@H](CCC(=O)O)NC(=O)[C@H]([C@@H](C)O)NC(=O)[C@@H]2CCCN2C(=O)[C@@H]2CCCN2C1=O
notes: also called 3BP-3368
Regarding B3, the “pIC50 Category (FACS)” value in experiment [1] is 6.1 pIC50 and 7 pIC50. In addition, the “pIC50 Category (Activity)” value in experiment [2] was 7.1 pIC50 and 8 pIC50.

B4: DOTA-Bal-[Cys(3MeBn)-Pro-Pro-Thr-Glu-Phe-Cys]-Asp-His-Nmf-Arg-Asp-NH2 (peptide)
peptide: {DOTA}-[βAla]CPPTEFCDH[NMeF]RD-NH2
modifications: linker 2-8 via mXylylene
SMILES: C[C@@H](O)[C@@H]1NC(=O)[C@@H]2CCCN2C(=O)[C@@H]2CCCN2C(=O)[C@@H](NC(=O)CCNC(=O)CN2CCN(CC(=O)O)CCN(CC(=O)O)CCN(CC(=O)O)CC2)CSCc2cccc(c2)CSC[C@@H](C(=O)N[C@@H](CC(=O)O)C(=O)N[C@@H](Cc2c[nH]cn2)C(=O)N(C)[C@@H](Cc2ccccc2)C(=O)N[C@@H](CCCNC(=N)N)C(=O)N[C@@H](CC(=O)O)C(N)=O)NC(=O)[C@H](Cc2ccccc2)NC(=O)[C@H](CCC(=O)O)NC1=O
notes: also called 3BP-3264
For B4, in experiment [3], the “pIC50 Category (FACS)” value was 7.1 pIC50 and 8 pIC50. Further, in experiment [2], the “pIC50 Category (Activity)” value is 7.1 pIC50 and 8 pIC50.

B5: Hex-[Cys(3MeBn)-Nmg-Pro-Thr-Glu-Phe-Cys]-NH2 (peptide)
peptide: Hexanoyl-C[Sar]PTEFC-NH2
modifications: linker 1-7 via mXylylene
SMILES: CCCCCC(=O)N[C@H]1CSCc2cccc(c2)CSC[C@@H](C(N)=O)NC(=O)[C@H](Cc2ccccc2)NC(=O)[C@H](CCC(=O)O)NC(=O)[C@H]([C@@H](C)O)NC(=O)[C@@H]2CCCN2C(=O)CN(C)C1=O
notes: also called 3BP-3347
On to B5, for which the “pIC50 Category (FACS)” value in experiment [1] was 6.1 pIC50 and 7 pIC50. For the same molecule, in experiment [2], the “pIC50 Category (Activity)” value was 7.1 pIC50 and 8 pIC50.

B6: Hex-[Cys(3MeBn)-Pro-Pro-Thr-Glu-Pcf-Cys]-NH2 (peptide)
peptide: Hexanoyl-CPPTE[Phe(4-Cl)]C-NH2
modifications: linker 1-7 via mXylylene
SMILES: CCCCCC(=O)N[C@H]1CSCc2cccc(c2)CSC[C@@H](C(N)=O)NC(=O)[C@H](Cc2ccc(Cl)cc2)NC(=O)[C@H](CCC(=O)O)NC(=O)[C@H]([C@@H](C)O)NC(=O)[C@@H]2CCCN2C(=O)[C@@H]2CCCN2C1=O
notes: also called 3BP-3369
B6: the “pIC50 Category (FACS)” value in experiment [1] was 6.1 pIC50 and 7 pIC50. The “pIC50 Category (Activity)” value in experiment [2] is 6.1 pIC50 and 7 pIC50.

B7: Hex-[Cys(3MeBn)-Pro-Pro-Thr-Glu-2Ni-Cys]-NH2 (peptide)
peptide: Hexanoyl-CPPTE[2Nal]C-NH2
modifications: linker 1-7 via mXylylene
SMILES: CCCCCC(=O)N[C@H]1CSCc2cccc(c2)CSC[C@@H](C(N)=O)NC(=O)[C@H](Cc2ccc3ccccc3c2)NC(=O)[C@H](CCC(=O)O)NC(=O)[C@H]([C@@H](C)O)NC(=O)[C@@H]2CCCN2C(=O)[C@@H]2CCCN2C1=O
notes: also called 3BP-3362
In the case of B7, in experiment [1], the “pIC50 Category (FACS)” value was 6.1 pIC50 and 7 pIC50. Also, the “pIC50 Category (Activity)” value in experiment [2] is 6.1 pIC50 and 7 pIC50.

B8: Ac-Met-[Cys(3MeBn)-Pro-Pro-Thr-Glu-Phe-Cys]-Asp-His-Phe-Ala-Asp-NH2 (peptide)
peptide: Ac-MCPPTEFCDHFAD-NH2
modifications: linker 2-8 via mXylylene
SMILES: CSCC[C@H](NC(C)=O)C(=O)N[C@H]1CSCc2cccc(c2)CSC[C@@H](C(=O)N[C@@H](CC(=O)O)C(=O)N[C@@H](Cc2c[nH]cn2)C(=O)N[C@@H](Cc2ccccc2)C(=O)N[C@@H](C)C(=O)N[C@@H](CC(=O)O)C(N)=O)NC(=O)[C@H](Cc2ccccc2)NC(=O)[C@H](CCC(=O)O)NC(=O)[C@H]([C@@H](C)O)NC(=O)[C@@H]2CCCN2C(=O)[C@@H]2CCCN2C1=O
notes: also called 3BP-3197
For B8, the “pIC50 Category (FACS)” value in experiment [1] is 6.1 pIC50 and 7 pIC50. Moreover, the “pIC50 Category (Activity)” value in experiment [2] is 6.1 pIC50 and 7 pIC50.

B9: Ac-Met-[Cys(3MeBn)-ala-Pro-Thr-Glu-Phe-Cys]-Asp-His-Phe-Arg-Asp-NH2 (peptide)
peptide: Ac-MC[dA]PTEFCDHFRD-NH2
modifications: linker 2-8 via mXylylene
SMILES: CSCC[C@H](NC(C)=O)C(=O)N[C@H]1CSCc2cccc(c2)CSC[C@@H](C(=O)N[C@@H](CC(=O)O)C(=O)N[C@@H](Cc2c[nH]cn2)C(=O)N[C@@H](Cc2ccccc2)C(=O)N[C@@H](CCCNC(=N)N)C(=O)N[C@@H](CC(=O)O)C(N)=O)NC(=O)[C@H](Cc2ccccc2)NC(=O)[C@H](CCC(=O)O)NC(=O)[C@H]([C@@H](C)O)NC(=O)[C@@H]2CCCN2C(=O)[C@@H](C)NC1=O
notes: also called 3BP-3215
In the case of B9, the “pIC50 Category (FACS)” value in experiment [1] was 6.1 pIC50 and 7 pIC50. In addition, in experiment [2], the “pIC50 Category (Activity)” value is 6.1 pIC50 and 7 pIC50.

B10: Hex-[Cys(3MeBn)-Pro-Pro-Thr-Glu-Phe-Cys]-Pamb-Arg-NH2 (peptide)
peptide: Hexanoyl-CPPTEFC[4Amb]R-NH2
modifications: linker 1-7 via mXylylene
SMILES: CCCCCC(=O)N[C@H]1CSCc2cccc(c2)CSC[C@@H](C(=O)NCc2ccc(C(=O)N[C@@H](CCCNC(=N)N)C(N)=O)cc2)NC(=O)[C@H](Cc2ccccc2)NC(=O)[C@H](CCC(=O)O)NC(=O)[C@H]([C@@H](C)O)NC(=O)[C@@H]2CCCN2C(=O)[C@@H]2CCCN2C1=O
notes: also called 3BP-3303
For B10, the “pIC50 Category (FACS)” value in experiment [3] is 7.1 pIC50 and 8 pIC50. Also, the “pIC50 Category (Activity)” value in experiment [2] was greater than 8 pIC50.

B11: Hex-[Cys(3MeBn)-Pro-4Tfp-Thr-Glu-Phe-Cys]-NH2 (peptide)
peptide: Hexanoyl-CP[Pro(trans-4-F)]TEFC-NH2
modifications: linker 1-7 via mXylylene
SMILES: CCCCCC(=O)N[C@H]1CSCc2cccc(c2)CSC[C@@H](C(N)=O)NC(=O)[C@H](Cc2ccccc2)NC(=O)[C@H](CCC(=O)O)NC(=O)[C@H]([C@@H](C)O)NC(=O)[C@@H]2C[C@@H](F)CN2C(=O)[C@@H]2CCCN2C1=O
notes: also called 3BP-3352
As to B11, in experiment [1], the “pIC50 Category (FACS)” value was 6.1 pIC50 and 7 pIC50. Further, in experiment [2], the “pIC50 Category (Activity)” value is 7.1 pIC50 and 8 pIC50.

B12: Phb-[Cys(3MeBn)-Pro-Pro-Thr-Gln-Phe-Cys]-Asp-NH2 (peptide)
peptide: Phb-CPPTQFCD-NH2
modifications: linker 1-7 via mXylylene; reading uncertain; also: printed as Phb-[Cys(3MeBn)-Pro-Pro-Thr-Gln-Phe-Cys]-Asp-NH2
notes: also called 3BP-3418
In the case of B12, in experiment [1], the “pIC50 Category (FACS)” value was 6.1 pIC50 and 7 pIC50. The “pIC50 Category (Activity)” value in experiment [2] was 6.1 pIC50 and 7 pIC50.

B13: Ac-Met-[Cys(3MeBn)-Aib-Pro-Thr-Glu-Phe-Cys]-Asp-His-Phe-Arg-Asp-NH2 (peptide)
peptide: Ac-MC[Aib]PTEFCDHFRD-NH2
modifications: linker 2-8 via mXylylene
SMILES: CSCC[C@H](NC(C)=O)C(=O)N[C@H]1CSCc2cccc(c2)CSC[C@@H](C(=O)N[C@@H](CC(=O)O)C(=O)N[C@@H](Cc2c[nH]cn2)C(=O)N[C@@H](Cc2ccccc2)C(=O)N[C@@H](CCCNC(=N)N)C(=O)N[C@@H](CC(=O)O)C(N)=O)NC(=O)[C@H](Cc2ccccc2)NC(=O)[C@H](CCC(=O)O)NC(=O)[C@H]([C@@H](C)O)NC(=O)[C@@H]2CCCN2C(=O)C(C)(C)NC1=O
notes: also called 3BP-3204
Consider B13, for which, in experiment [3], the “pIC50 Category (FACS)” value was 7.1 pIC50 and 8 pIC50. Moreover, the “pIC50 Category (Activity)” value in experiment [2] was 7.1 pIC50 and 8 pIC50.
